Results reported in US20100316616A1.

Target: His-tagged mouse Wnt3a (mouse) (UniProt P27467)
Assay: cell-based or functional assay

Sequence of UniProt P27467 (P27467 19-352): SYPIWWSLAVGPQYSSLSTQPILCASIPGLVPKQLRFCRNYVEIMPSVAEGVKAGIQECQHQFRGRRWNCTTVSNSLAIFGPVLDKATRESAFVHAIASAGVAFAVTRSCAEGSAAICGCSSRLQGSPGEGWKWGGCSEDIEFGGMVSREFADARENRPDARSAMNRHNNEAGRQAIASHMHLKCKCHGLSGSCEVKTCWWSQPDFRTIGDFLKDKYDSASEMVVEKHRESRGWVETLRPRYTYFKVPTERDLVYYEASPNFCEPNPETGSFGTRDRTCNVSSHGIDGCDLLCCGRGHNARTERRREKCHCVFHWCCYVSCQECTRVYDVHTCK

| Substance | decrease in Wnt3a-induced CRT (beta-catenin-TCF-regulated transcription), TCF-responsive reporter in HEK293T and Huh-7 cells [%] |
| --- | --- |
| human FZC18 (from UniProt P39060 216-450) | > 80 |
| human V3Nter (from UniProt P39060 24-497) | > 80 |
